Reference: patent publication US20110190386A1

Key:
[1] = target: CFP from CFP-empty plasmid (pECFP); test: FRET by acceptor photobleaching; negative control, cotransfection of empty CFP and YFP plasmids in MDA-MB231 cells
[2] = target: CFP-tagged CD44 (human full length CD44s cDNA fused in frame into pECFP, expressed in MDA-MB231 cells) (human) (UniProt P16070); test: FRET by acceptor photobleaching, CFP-CD44/YFP-OPN in MDA-MB231 cells, in the presence of blocking antibody to αvβ3 integrin
[3] = target: CFP-tagged CD44 (human full length CD44s cDNA fused in frame into pECFP, expressed in MDA-MB231 cells) (human) (UniProt P16070); test: FRET by acceptor photobleaching, CFP-CD44/YFP-OPN in MDA-MB231 cells, in the presence of mutated OPN-R3 RNA aptamer (control)
[4] = target: CFP-tagged CD44 (human full length CD44s cDNA fused in frame into pECFP, expressed in MDA-MB231 cells) (human) (UniProt P16070); test: FRET by acceptor photobleaching, confocal microscopy, MDA-MB231 cells coexpressing CFP-CD44 and YFP-OPN

| Substance | FRET efficiency [1] [%] | FRET efficiency [2] [%] | FRET efficiency [3] [%] | FRET efficiency [4] [%] |
| --- | --- | --- | --- | --- |
| YFP from YFP-empty plasmid (pEYFP) | 0.23 |  |  |  |
| YFP-tagged OPN (human OPN cDNA fused in frame into pEYFP, expressed in MDA-MB231 cells) (from UniProt P10451 17-314) (ligand) |  | 19.6 | 23.1 | 24.2 |
